{
  "source": "patent US10427126B2",
  "about": "“System and method for longitudinal analysis of peptide synthesis” (Roche Sequencing Solutions, Inc., priority 2015, dated 2019)",
  "key": {"streptavidin [1]": {"target": "T1, streptavidin (Streptomyces avidinii, UniProt P22629)", "T1 sequence (P22629 25-183, species assumed)": "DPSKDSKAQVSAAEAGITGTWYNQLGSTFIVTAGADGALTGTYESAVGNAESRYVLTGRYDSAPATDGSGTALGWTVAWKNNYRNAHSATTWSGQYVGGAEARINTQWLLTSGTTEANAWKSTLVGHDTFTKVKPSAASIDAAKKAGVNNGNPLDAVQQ", "settings": "peptide including the binder sequence; cited from earlier work"}, "streptavidin [2]": {"target": "T1, streptavidin", "assay": "Cy5-labeled streptavidin binding to control peptide features on a peptide array (fluorescence signal output, FIG. 12)", "source_text": "Whereas the hypothetical data presented in FIGS. 8-11 are for two example peptide arrays, actual signal output data following interrogation of a population of control peptide features can be presented in alternative or additional formats. With reference to FIG. 12, data was collected for a peptide array synthesis operation including twelve total synthesis periods. Control peptide features having the streptavidin binder sequence WTHPQFE (SEQ ID NO:1) were synthesized over three consecutive and uninterrupted synthesis periods (e.g., see FIG. 3) with control peptide features synthesized beginning with each of the first ten synthesis periods. […] The signal output is measured for each of the control peptide features using one or more interrogation and detection techniques as described herein. […]\nControl peptide features are analyzed following the completion of a synthesis operation by array deprotection, streptavidin binding, and array scanning. […] Streptavidin fluorescence signal is detected by scanning the array at 2 μm resolution and 15% gain with a 635 nm excitation wavelength using an MS200 microarray scanner.\nBox and whisker plots for analysis of control peptide feature data are prepared in a two-part process. First, data is aggregated for a plurality of synthesis operations that were individually determined to pass a quality control assessment. […]"}},
  "data": [
    {"substance": "FDEWL", "values": [
      {"measurement": "binding by streptavidin", "setting": "streptavidin [1]", "result": "can be bound by streptavidin"}
    ]},
    {"substance": "WTHPQFE", "values": [
      {"measurement": "signal output as percentage of the aggregate data (2^14.3 units)", "setting": "streptavidin [2]; fourth synthesis operation, synthesis period four", "result": "about 5%"},
      {"measurement": "signal output as percentage of the aggregate data (2^14.3 units)", "setting": "streptavidin [2]; third synthesis operation", "result": "about 54%"}
    ]}
  ]
}
